To fix the notation:
B3: LexA-RXR (other, bacterial;human, UniProt P0A7C2 1-202, looked up)
chain: MKALTARQQEVFDLIRDHISQTGMPPTRAEIAQRLGFRSPNAAEEHLKALARKGVIEIVSGASRGIRLLQEEEEGLPLVGRVAAGEPLLAQQHIEGHYQVDPSLFKPNADFLLRVSGMSMKDIGIMDGDLLAVHKTQDVRNGQVVVARIDDEVTVKRLKKQGNKVELLPENSEFKPIVVDLRQQSFTIEGLAVGVIRNGDWLLAMGMKREAVQEERQRGKDRNENEVESTSSANEDMPVERILEAELAVEPKTETYVEANMGLNPSSPNDPVTNICQAADKQLFTLVEWAKRIPHFSELPLDDQVILLRAGWNELLIASFSHRSIAVKDGILLATGLHVHRNSAHSAGVGAIFDRVLTELVSKMRDMQMDKTELGCLRAIVLFNPDSKGLSNPAEVEALREKVYASLEAYCKHKYPEQPGRFAKLLLRLPALRSIGLKCLEHLFFFKLIGDTPIDTFLMEMLEAPHQMT
notes: also called Lex fusion RXR
B4: B42-RIP13 (other, not shown: large carriers)
chain: DALAALVDAAASAPQMDVSKTKESKHEAARLEENLRSRSAAVSEQQQLEQKNLEVEKRSVQCVCTSSALPSGKAQPHASVVYSEAGKDKGPPPKSRYEEELRTRGKTTITAANFIDVTITRQIASDKDARERGSQSSDSSSSLSSHRYETASDAIEVISPASSPAPPQEKPQAYQPDMVKANQAENESTRQYEGPLHHYRSQQESPSPQQQPPLPPSSQSEGMGQVPRTHRLITLADHICQIITQDFARNQVPSQPSTSTFQTSPSALSSTPVRTKTSSRYSPESQSQTVLHPRPGPRVSPENLVDKSRGSRPGKSPERSHIPSEPYEPISPPQGPAVHEKQDSMLLLSQRGVDPAEQRSDSRSPGSISYLPSFFTKLESTSPMVKSKKQEIFRKLNSSGGGDSDMAAAQPGTEIFNLPAVTTSGAVSSRSHSFADPASNLGLEDIIRKALMGSFDDKVEDHGVVMSHPVGIMPGSASTSVVTSSEARRDEGEPSPHAGVCKPKLINKSNSRKSKSPIPGQSYLGTERPSSVSSVHSEGDYHRQTPGWAWEDRPSSTGSTQFPYNPLTIRMLSSTPPTQIACAPSAITQAAPHQQNRIWEREPAPLLSAQYETLSDSDD

Test [1] deals with B3. Kind of test: yeast interaction trap screen; clones showing specific interaction with LexA-RXR; four clones starting at amino acid 91. Here is the method: (§1) From 3×10^6 primary yeast transformants, a number of β-gal expressing colonies were identified in two independent screens carried out in the presence or absence of 9-cis-RA. Since expression of the B42-cDNA fusion proteins was induced by growth on galactose, candidates obtained from each condition were tested for galactose-dependent expression of both β-gal and LEU2, in the presence or absence of 9-cis-RA, using appropriate indicator plates (see below).
(§2) Candidates showing specific interaction with LexA-RXR were sequenced across the B42 fusion junction using an appropriate vector primer, and additional sequence was determined. The deduced amino acid sequences were compared to those in the GenBank and EMBL databases using the GCG (Devereux et al., Nucleic Acids Res. 12:387–395, 1984) and BLAST programs (Altschul et al., J. Mol. Biol. 215:403–410, 1990). […] All of these clones included intact ligand binding domains, as expected from the fact that the major heterodimerization function lies within that domain. For PPAR (Issemann et al., Nature 347:645–650, 1990), three clones started at amino acid 84, just N-terminal to the DNA binding (C) domain, four others started at 91, within the C domain, and one at 170, just past the C domain. For RAR (Leroy et al., EMBO J. 10:59–69), all six clones started at amino acid 132, within the C domain.

A further test addresses T1, LexA-TR (bacterial; rat, UniProt P0A7C2 1-202; P18113 170-461, limits assumed).
T1 construct: also called Lex fusion TR
T1 sequence (looked up): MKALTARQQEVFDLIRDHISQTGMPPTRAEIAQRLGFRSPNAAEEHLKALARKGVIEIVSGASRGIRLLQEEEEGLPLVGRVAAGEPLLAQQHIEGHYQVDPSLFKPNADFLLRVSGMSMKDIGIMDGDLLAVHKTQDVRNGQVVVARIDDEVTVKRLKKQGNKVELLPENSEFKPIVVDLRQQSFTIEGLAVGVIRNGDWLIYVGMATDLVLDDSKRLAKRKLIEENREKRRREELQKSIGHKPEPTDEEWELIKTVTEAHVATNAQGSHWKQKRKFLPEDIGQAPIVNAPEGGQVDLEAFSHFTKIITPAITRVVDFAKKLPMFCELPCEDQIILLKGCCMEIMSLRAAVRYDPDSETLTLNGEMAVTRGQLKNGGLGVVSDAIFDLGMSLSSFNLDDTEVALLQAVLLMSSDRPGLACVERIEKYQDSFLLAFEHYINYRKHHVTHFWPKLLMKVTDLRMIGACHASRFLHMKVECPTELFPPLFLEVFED
Nature of the test: yeast interaction trap, X-gal plate, with T3; W = white (no interaction). Here is the method: (§3) Interactions of the RIP clones with other superfamily members, including RAR, TR, the glucocorticoid receptor (GR), and MB67, an orphan isolated in this lab (Baes et al., Mol. Cell. Biol. 14:1544–1552, 1994) were also tested using a series of appropriate LexA fusions. In particular, the experiments shown in Table 1 were carried out as follows. Yeast transformants containing a lacZ reporter gene under the control of LexA binding sites and the indicated B42- and Lex-fusion protein expression vectors were transferred onto galactose-Ura⁻His⁻Trp⁻ plates containing X-gal and incubated for two days. Relative levels of β-galactosidase activity were estimated and are depicted as follows: B, blue (strong interaction); LB, light blue (weak interaction); W, white (no interaction); nt, not tested. At least three separate colonies were tested on the same plate for interaction. To test the effects of ligands, 100 µl of a 10^-6M solution of the appropriate ligand was spread onto plates just before inoculation of cells (9-cis-RA for RXR, T3 for TR, and all-trans-RA for RAR). For B42-PPAR, the plasmid isolated from the screening was used. Both full length and truncated RAR fusions to LexA were tested with identical results for all the B42 fusions except B42-110, which was tested only with the full length fusion.

The test “B42-RIP13” deals with B4. Kind of test: yeast interaction trap, X-gal plate, with 9-cis-RA; B = blue (strong interaction). Here is the method:
as §3

Another test concerns the target T2, B42-RIP110 (mouse, UniProt Q5U5Q9 20-727).
T2 construct: Clone from a mouse liver cDNA library fused to B42; also called B42-110; B42 fusion 110
T2 sequence: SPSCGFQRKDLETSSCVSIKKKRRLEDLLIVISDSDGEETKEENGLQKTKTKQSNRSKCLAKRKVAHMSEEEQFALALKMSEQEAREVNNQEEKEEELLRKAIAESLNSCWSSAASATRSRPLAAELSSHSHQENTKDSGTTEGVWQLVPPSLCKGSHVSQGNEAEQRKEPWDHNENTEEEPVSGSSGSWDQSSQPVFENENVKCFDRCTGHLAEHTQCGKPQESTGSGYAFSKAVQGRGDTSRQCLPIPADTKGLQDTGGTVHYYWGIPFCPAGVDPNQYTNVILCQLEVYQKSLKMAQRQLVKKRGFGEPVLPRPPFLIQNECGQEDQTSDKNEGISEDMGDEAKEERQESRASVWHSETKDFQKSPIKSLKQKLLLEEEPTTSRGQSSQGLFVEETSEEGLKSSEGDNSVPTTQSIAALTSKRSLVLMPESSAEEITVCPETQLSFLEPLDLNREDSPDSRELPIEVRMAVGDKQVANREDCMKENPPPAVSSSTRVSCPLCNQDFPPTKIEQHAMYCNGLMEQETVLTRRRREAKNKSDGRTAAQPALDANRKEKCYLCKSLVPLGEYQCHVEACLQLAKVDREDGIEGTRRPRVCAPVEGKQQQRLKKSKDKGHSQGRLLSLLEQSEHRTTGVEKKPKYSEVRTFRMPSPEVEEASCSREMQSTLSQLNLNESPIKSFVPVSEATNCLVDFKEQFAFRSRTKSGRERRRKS
The description is as above. Here is the method: as §3

For test [2], the target named is B3. Kind of test: cell-based or functional assay.
Test [3] addresses B3. Kind of test: yeast interaction trap screen; clones showing specific interaction with LexA-RXR; three clones starting at amino acid 84. The procedure:
as §1, §2

B1: B42-PPAR clone starting at amino acid 91 (other, mouse, UniProt P23204 91-468, looked up, not shown: large carriers)
chain: DESPGSALNIECRICGDKASGYHYGVHACEGCKGFFRRTIRLKLVYDKCDRSCKIQKKNRNKCQYCRFHKCLSVGMSHNAIRFGRMPRSEKAKLKAEILTCEHDLKDSETADLKSLGKRIHEAYLKNFNMNKVKARVILAGKTSNNPPFVIHDMETLCMAEKTLVAKMVANGVEDKEAEVRFFHCCQCMSVETVTELTEFAKAIPGFANLDLNDQVTLLKYGVYEAIFTMLSSLMNKDGMLIAYGNGFITREFLKNLRKPFCDIMEPKFDFAMKFNALELDDSDISLFVAAIICCGDRPGLLNIGYIEKLQEGIVHVLKLHLQSNHPDDTFLFPKLLQKMVDLRQLVTEHAQLVQVIKKTESDAALHPLLQEIYRDMY
notes: range 91-C-terminus; Only the start is stated; also called PPAR (four clones)
In the case of B1, the binding result with LexA-RXR [1] is “binds”.

B2: B42-PPAR (plasmid isolated from the screening, as used in Table 1) (other, mouse, UniProt P23204 91-468, looked up, not shown: large carriers)
chain: DESPGSALNIECRICGDKASGYHYGVHACEGCKGFFRRTIRLKLVYDKCDRSCKIQKKNRNKCQYCRFHKCLSVGMSHNAIRFGRMPRSEKAKLKAEILTCEHDLKDSETADLKSLGKRIHEAYLKNFNMNKVKARVILAGKTSNNPPFVIHDMETLCMAEKTLVAKMVANGVEDKEAEVRFFHCCQCMSVETVTELTEFAKAIPGFANLDLNDQVTLLKYGVYEAIFTMLSSLMNKDGMLIAYGNGFITREFLKNLRKPFCDIMEPKFDFAMKFNALELDDSDISLFVAAIICCGDRPGLLNIGYIEKLQEGIVHVLKLHLQSNHPDDTFLFPKLLQKMVDLRQLVTEHAQLVQVIKKTESDAALHPLLQEIYRDMY
notes: 'For B42-PPAR, the plasmid isolated from the screening was used'; also called B42 fusion PPAR
Take B2: the binding result in the test with LexA-TR is “no binding”. As for B3, the binding result with B42-RIP13 and with B42-RIP110 was “binds” in each case. Regarding B4, in the test with LexA-RXR [2], the “β-gal expression (lacZ reporter under LexA binding sites, yeast liquid culture)” value is around 3 fold.

B5: B42-PPAR clone starting at amino acid 84 (other, mouse, UniProt P23204 84-468, looked up, not shown: large carriers)
chain: PVIPASTDESPGSALNIECRICGDKASGYHYGVHACEGCKGFFRRTIRLKLVYDKCDRSCKIQKKNRNKCQYCRFHKCLSVGMSHNAIRFGRMPRSEKAKLKAEILTCEHDLKDSETADLKSLGKRIHEAYLKNFNMNKVKARVILAGKTSNNPPFVIHDMETLCMAEKTLVAKMVANGVEDKEAEVRFFHCCQCMSVETVTELTEFAKAIPGFANLDLNDQVTLLKYGVYEAIFTMLSSLMNKDGMLIAYGNGFITREFLKNLRKPFCDIMEPKFDFAMKFNALELDDSDISLFVAAIICCGDRPGLLNIGYIEKLQEGIVHVLKLHLQSNHPDDTFLFPKLLQKMVDLRQLVTEHAQLVQVIKKTESDAALHPLLQEIYRDMY
notes: range 84-C-terminus; Only the start is stated; also called PPAR (three clones)
With B5, the binding result in the test with LexA-RXR [3] is recorded as “binds”.

The values are drawn from US7115711 (GENERAL HOSPITAL, dated 2006).
